System: rabbit model of thromboembolic stroke
Assay: Rabbit model of thromboembolic stroke (clot embolization)
Assay type: in vivo
Details: 16-HETE 1 mg/kg per minute for 1 h from 1 h after embolization; tPA 6.3 mg/kg at 3-5 h; FIG. 3
Experimental: New Zealand rabbits of either sex, weighing 3-4 kilograms were used for the study. Prior to the start of the experiment, the rabbits were divided into three groups, those that were administered both 16-HETE at a rate of 1 mg/kg per minute for one hour and tPA (Genentech, Inc., San Francisco, Calif.) at a concentration of 6.3 mg/kg, tPA alone, or vehicle.
On the day of treatment the animals were fasted for 12 hours with free access to water and then anesthetized with an intramuscular solution of ketamine (50 mg/kg), acepromazine (20 mg) and xylazine (5 mg/kg). This solution was subsequently used to maintain a surgical depth of anesthesia as determined by responses to various physiologic and autonomic stimuli, including mean arterial pressure and response to paw pinch.
The animals were prepared for surgery by introducing femoral venous and arterial catheters (PE50 and 90, respectively; Clay Adams, Parsippany, N.J.). The catheters were placed for subsequent blood sampling, including blood gas and arterial pressure, drug infusions, and fluid replacement.
All animals were tracheotomized and mechanically ventilated in order to maintain arterial blood gases within a physiologic range. Arterial blood gas measurements (pH, pCO2, pO2) were determined, using a Corning 168 blood gas monitor. […]

B1: tPA: tissue plasminogen activator, thrombolytic agent (Genentech, Inc.) (protein, UniProt P00750 36-562, looked up)
Tissue-type plasminogen …: SYQVICRDEKTQMIYQQHQSWLRPVLRSNRVEYCWCNSGRAQCHSVPVKSCSEPRCFNGGTCQQALYFSDFVCQCPEGFAGKCCEIDTRATCYEDQGISYRGTWSTAESGAECTNWNSSALAQKPYSGRRPDAIRLGLGNHNYCRNPDRDSKPWCYVFKAGKYSSEFCSTPACSEGNSDCYFGNGSAYRGTHSLTESGASCLPWNSMILIGKVYTAQNPSAQALGLGKHNYCRNPDGDAKPWCHVLKNRRLTWEYCDVPSCSTCGLRQYSQPQFRIKGGLFADIASHPWQAAIFAKHRRSPGERFLCGGILISSCWILSAAHCFQERFPPHHLTVILGRTYRVVPGEEEQKFEVEKYIVHKEFDDDTYDNDIALLQLKSDSSRCAQESSVVRTVCLPPADLQLPDWTECELSGYGKHEALSPFYSERLKEAHVRLYPSSRCTSQHLLNRTVTDNMLCAGDTRSGGPQANLHDACQGDSGGPLVCLNDGRMTLVGIISWGLGCGQKDVPGVYTKVTNYLDWIRDNMRP
brain infarct size: significantly larger
